Assays:
[1] = molecular target: GST-tagged AtFKBP53 NTD (Arabidopsis thaliana)
[2] = molecular target: nucleosome core particle (NCP); experiment: ITC
[3] = molecular target: nucleosome core particle (NCP); experiment: AUC
[4] = molecular target: nucleosome core particle (NCP); experiment: native gel or EMSA
[5] = molecular target: AtFKBP53 NTD (residues 1–112) (Arabidopsis thaliana) (UniProt Q93ZG9); experiment: AUC
Sequence of AtFKBP53 NTD (residues 1–112) (Arabidopsis thaliana) (Q93ZG9 1-112): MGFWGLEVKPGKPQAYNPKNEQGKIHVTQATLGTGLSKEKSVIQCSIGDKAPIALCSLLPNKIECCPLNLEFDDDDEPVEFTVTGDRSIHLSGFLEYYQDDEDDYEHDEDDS

Sequence of AtFKBP53 NTD (residues 1–112) (Q93ZG9 1-112): as above
Sequence of GST-tagged AtFKBP53 NTD (domain or fragment) (Q93ZG9 whole entry, the tested form may be a part): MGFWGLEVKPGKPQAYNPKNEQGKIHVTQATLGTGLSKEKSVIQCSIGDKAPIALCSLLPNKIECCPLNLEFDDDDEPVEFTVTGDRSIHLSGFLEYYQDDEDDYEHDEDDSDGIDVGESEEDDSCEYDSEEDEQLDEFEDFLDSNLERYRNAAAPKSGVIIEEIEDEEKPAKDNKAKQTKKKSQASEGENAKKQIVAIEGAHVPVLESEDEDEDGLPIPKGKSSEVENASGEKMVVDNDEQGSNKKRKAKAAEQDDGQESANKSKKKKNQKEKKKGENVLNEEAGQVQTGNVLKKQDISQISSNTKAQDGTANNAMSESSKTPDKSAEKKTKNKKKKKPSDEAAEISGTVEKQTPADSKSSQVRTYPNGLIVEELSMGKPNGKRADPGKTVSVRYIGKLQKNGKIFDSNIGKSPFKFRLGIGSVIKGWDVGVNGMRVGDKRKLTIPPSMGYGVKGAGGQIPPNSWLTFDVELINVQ

Substance: GST-tagged AtFKBP53 NTD (domain or fragment)
- stoichiometry N [1]: 2

Substance: AtFKBP53 NTD (residues 1–112) (from UniProt Q93ZG9 1-112) (domain or fragment)
- Kd1 (first site, sequential binding model) [2]: 0.18 µM
- Kd2 (second site, sequential binding model) [2]: 2.72 µM
- stoichiometry N (binding sites on NCP) [2]: 2
- stoichiometry N (NTD pentamers per NCP) [3]: 2
- stoichiometry N (NTD pentamers per NCP) [4]: 2

Substance: H3/H4 tetramer (from UniProt P84233;P62799) (complex)
- stoichiometry N (H3/H4 tetramer per NTD pentamer) [5]: 1

Substance: H2A/H2B dimer (from UniProt P06897;P02281) (complex)
- stoichiometry N (H2A/H2B dimer per NTD pentamer) [5]: 1

Reference: publication PMC7026663
